In the nanobody polyreactivity screen of Harvey et al. (2022):

Test: yeast display, Sf9 membrane polyspecificity reagent, FACS + sequencing; frameworks hold sequencing errors
Method in brief: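 Nanobodies came from a synthetic yeast display library in Saccharomyces cerevisiae BJ5465, induced with galactose for 36–48 hours and stained for 1 hour at 4 °C with 10% biotinylated, detergent-solubilized Sf9 membrane reagent. Cells were enriched on streptavidin microbeads and then FACS-sorted, with low and high (top ~1%) gates set on anti-HA fluorescence for expression and streptavidin fluorescence for reagent binding. Each polyreactivity label reflects the gate a clone came from. Genes were amplified by colony PCR, sequenced by MiSeq 2 × 250 and filtered by CDR length.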

Row | Sequence | polyreactivity (PSR sort gate)
1 | QVQLVESGGCLVQAGGSLRLSCAASGITYLEYAMGWYIQAPGKERELVATINSGGSTNYADSVKGRFTISRDNAKNTVYLQMNSLKPEDTAVYYCAAVVSDYVWRYEYWGQGTQVTVSS | low polyreactivity
2 | QVQLVESGGCLVQAGGSLRLSCAASGLIFAEYAMGWYRQAPGKERELVARITSGGSTDYADSVKGRFTISRDNAKNTVFLQMNSLKPEDTAVYYCAAAYAYWGQGTQVTVSS | low polyreactivity
3 | QVQLVESGGCLVQAGGSLRLSCAASGLIFLGYAMGWYRQAPGKERELVASIRTGGSTSYADSVKGRFTISRDNAKNTVYLQMYSLKPEDTAVYYCAADRGRPNLPGDYWGQGTQVTVSS | low polyreactivity
4 | QVQLVESGGCLVQAGGSLRLSCAASGLTFRGYAKGWYRPAPGKERELVAAITSSAGRTNYADSVKGRFTISRDNAKNTVYLQMNSLNPEDTAVYYCAAAHSYTTRWGYYKFNYWGQGTQVSVSS | high polyreactivity
5 | QVQLVESGGCLVQAGGSLRLSCAASGLTFSRYAMGWYRQAPGKERELVASSSQGGGSTYYADSVKGRFTISRDNAKITVYFQMNSLIPEDTAVYYCAASWYYSLQRYGYWGQGTQETVSS | high polyreactivity
6 | QVQLVESGGCLVQAGGSLRLSCAASGNTFRRNVMGWYRQAPGKERELVPAINRGGSTTYADSVKGRFTISRDNAMNTVYLQMNSLKPEDTAVYYCNAEKRGQSYRFDYWGQGSQVTVSS | high polyreactivity
7 | QVQLVESGGCLVQAGGSLRLSCAASGRIFAYNAMGWYRQAPGKESELVAAITRGGSTNYADSVKGRFTISRDNAKNTVYLQMNSLKPEDTAVYYCAARRVDTRVHVRYRYYYWGQGTQVTVSS | high polyreactivity
8 | QVQLVESGGCLVQAGGSLRLSCAASGRIFHSNAMGWYRQAPGKERELVAAISTAGSTYYADSVKGRFTISRDNAKNTVYLQMNSLKPEDTAVYYCNAESPWWWEYDSWGQGTQVTVSS | high polyreactivity
9 | QVQLVESGGCLVQAGGSLRLSCAASGRIFVYYAMGWYRQAPGKERELVAGISLSGGSTYYADSVKGRFTISRDNAKNTVYLQMYSLKPEDTAVYDSAIEVNAGYYVWYDYWGQGTQVTVSS | low polyreactivity
10 | QVQLVESGGCLVQAGGSLRLSCAASGRSFRLYAMGGYRQAPGKERELVAAITRGGRTNYADSVKGRFTISRDNAKNTVYLQMNSLKPEDTAVYYCAARYVERHTDYYYWGQGTQVTVSS | low polyreactivity
11 | QVQLVESGGCLVQAGGSLRLSCAASGRTFDVYAMGWYRQAPGKERELVATIRSDGSTTYADSVKGRFTISRDNAKNTVYLQMNSLKPEDTAVYYCAADFRSGFSSSTTPVQSDWGQGTQVTVSS | low polyreactivity
12 | QVQLVESGGCLVQAGGSLRLSCAASGRTFLANAMGWYRQAPGKERELVAAITWSGGRTNYADSVKGRFTISRDNAKNTVYLQMNSLKPEDTAVYYCAADIFYEQVVGGTDVGYHDFDYWGQGTQVTVSS | low polyreactivity
13 | QVQLVESGGCLVQAGGSLRLSCAASGRTFYFYTMGWYRQAPGKERQLVATIRWSAGSTYYADSVKGRFTISRDNAKNTVYLQMNSLKPEDTAVYYCNADPYVYSSWQYGYWGQGTQVTVSS | high polyreactivity
14 | QVQLVESGGCLVQAGGSLRLSCAASGSIFDGNTMGWYRQAPGKERELVAAITWSGGSTYYADSVKGRFTISRDNAKNTVYLQMNSLKPEDTAVYYCAAEYWDSDPYDYWGQGTQVTVSS | low polyreactivity
15 | QVQLVESGGCLVQAGGSLRLSCAASGSIFKWYAMGWYRQAPGKERELVAAITRGGSTNYADSVQGRFTISRDNAKNTVYLQMNSLKPEDTAVYYCNAVYTYRSGFGYWGQGTQVTVSS | low polyreactivity
16 | QVQLVESGGCLVQAGGSLRLSCAASGSIFPPYAMGWYIPAPGKERELVAAISRRGGSTYYADSVKGRFTISRDNAKNTVYLQMNSLKPEDTAVYYCAARGGQMEYWGQGTQVTVSS | high polyreactivity
17 | QVQLVESGGCLVQAGGSLRLSCAASGSIFPWYAMGWYRQAPGKERELVADISYSGSGTYYADSVKGRFAISRDNGKNNVYLQMTSLKPEDSAVYYCNAQRAEWYPVGRYEYWGQGSQVTVSS | low polyreactivity
18 | QVQLVESGGCLVQAGGSLRLSCAASGSIFRYYAMGWYRQAPGKDRELVAAISWSSGRTYYADSVKGRFTISRDNAKNTVYLQMNSLKPEDTAVYYCAAGVPGYPRYEYDYWGQGTQVTVSS | high polyreactivity
19 | QVQLVESGGCLVQAGGSLRLSCAASGSIFSANAMGWYRQAPGKETELVAAITRGGSTNYADSVKGRFTIARDNAKNTVYLQMNSLKPEDTAVYYCNDEPDPYSSGRVRRDYDYWGQGTQVTVSS | low polyreactivity
20 | QVQLVESGGCLVQAGGSLRLSCAASGSIFVSYAMGWYRQAPGTERELVAAITGRTGSTYYADSVKGRFTISRDNAQNTVYLQMNSLKPEDTEVYYCAARHKPHHRYDYWGQGTQVTVSS | low polyreactivity
21 | QVQLVESGGCLVQAGGSLRLSCAASGSIFYSYAMGWYRQAPGKEMELVADISSDGSTNYADSVKGRFTISRDNAKNTVYLQMNSLKPEDTAVYYCAKKPSSARYVTIGFDYWGQGTQVTVSS | low polyreactivity
22 | QVQLVESGGCLVQAGGSLRLSCAASGSTFDYYMGWYRQAPGKERELVAAITYSGGSTYYADSVKGRFTISRDNAKNSVYLQMNSLNPEDTAVYYCAKDRSTFDDFYSNYYWGQGTQVTVSS | low polyreactivity

Row | Sequence | polyreactivity (PSR sort gate)
23 | QVQLVESGGCLVQAGGSLRLSCAASGSTFENYAMGWYRPAPGKERELVATISIDGRTNYADSVKGRFTISRDNAKNTVFLQMNSLKPEDTGVYYCAARPYWRHRYDYWGQGTQVTVSS | low polyreactivity
24 | QVQLVESGGCLVQAGGSLRLSCAASGSTFFSYAMGWYRQAPGKESEFVAANTYSSGRTYYADSVKGRFTISRDNAKNTVYLQMHSLKAEDSAVYSCSTPGFVWGRGYDYWGQGTHVTVSS | high polyreactivity
25 | QVQLVESGGCLVQAGGSLRLSCAASGSTFRGNDMGWYRQAPGKEREFVAAITVSGGSTYYADSVKGRFTISRDNAKNTVYLQMNSLKPDDTAVYFCDARYLRYSSKTIQNEDYWGLGTQVTVSS | high polyreactivity
26 | QVQLVESGGCLVQAGGSLRLSCAASGSTFSWYTMGWYRQAPGKERELVAAITRGGTTYYADSVKGRFTISRDNAKNTVYLQMNSLKPEDSAVYYCAARYSRDVRMGYWGQGTQVTVSS | high polyreactivity
27 | QVQLVESGGCLVQAGGSLRLSCAASGSTFVKIVMGWYRQAPGKERELVAGITRGGSTYYADSVKGRFTISRDNAKNTVYLQMNSLKPEDTPVYYCAKRYAWDRDYWGQGTQVTVSS | high polyreactivity
28 | QVQLVESGGCLVQAGGSLRLSCAASGYIFGYNAMGWYRQAPGKERELVAAISYSGGSTYYADSVKGRFTISRDNAKNTVYLQMNSLKPVDTAVYYCAAGAKWIYHYYSSLQYGYWGQGTQVTVSS | high polyreactivity
29 | QVQLVESGGCLVQAGGSLRLSCAATGIIFDGYAMGWYRQAPGKERELVAAISWSGGSTYYADSVKGRFTISRDNAKNTVYLQMNSLKPEDTAVYYCAAALPGWYHDDYDYWGQGTQVTVSS | low polyreactivity
30 | QVQLVESGGCLVQAGGSLRLSCAATGRIFKRYVMGWYRQAPGKERELVAAISQRGGSTNYADSVKGRFTISRDNAKNTVYLQMNSLKPEDTAVYYCAAGFFSRYDYWGQGTQVTVSS | high polyreactivity
31 | QVQLVESGGCLVQAGGSLRLSCCASARTFWYYTMGWYRQAPGKERELVASISRVTSTYYADSVKGRLTSSRDNAKNTVYLQMNSLKPEDTAVYYCAGLQIRRSYWRTFYWGQGTQVTVSS | low polyreactivity
32 | QVQLVESGGCLVQAGGSLRLSCYASGIIFAWYAMGWYRQAPGKERQLVAAISYSGCTTYYADSVKWRFTISRDNAKNTVYFKMNSLKPVDTAVYYCAALLHHFFTYDYWGQGTQVTVSS | low polyreactivity
33 | QVQLVESGGCLVQAGGSLRLSCYASGSIFVDKAMGWFRQPPGKERELVAAITDSGGRTYYADSVKGRFTISRDNAKNTVYLQKNSLKPEDTAVYYCAAGQSGYAGRRPAFGSWGQGTQVTVSS | low polyreactivity
34 | QVQLVESGGCLVQAGGSLRLSSAASGFIFSRYAMGWYRQATGKERELVASISWGGGSTSYADSVKGRFTISRDNAKYTVYLQMNSLKPEDTAVYYCNARVRSHRFNYWGQGTQVTVSS | high polyreactivity
35 | QVQLVESGGCLVQAGGSLSLSCAASGSTFVAYAMGWYRQAPGKESELVAAISKSGVRTYYADYVKGRFTISRDNAKNTVYLQMNSLKPEDSAFYYCAALTYYSQVTSSVSLQQYGYWGQVTQVTVSS | low polyreactivity
36 | QVQLVESGGCLVQAGVSLRLSCAASGRIFAYYAMGWYRQAPRKERELVAAISRSGVSTYYADSVKGRFTISRDNAKNTVYIQMNSLKPEDTAVYYCAARWRSGFTSGDYWGQGTQVTVSS | low polyreactivity
37 | QVQLVESGGCLVQEGGSLRLSCAASGRIININAMGWSRHAPGKEREMVAAITWRSGSTYYADSVKGRFTISRDNAKNTVYLQLNSLKPEDTAVYFCAADFSQTRRPIRFYYWGQGTQVTVSS | high polyreactivity
38 | QVQLVESGGDLVQAGGSLRLSCAASGGIFQKYVMGWYRQAPGKERELVARITSVGSTYYADSVKGRFTISRDNAKNTVYLQMNSLKPVDTAVYYCNAELYRRSQGYRFTAFDYWGQGTQVTVSS | low polyreactivity
39 | QVQLVESGGDLVQAGGSLRLSCAASGYTFIVKAMGWYRQAPGKERELVAGISYRGGRTFYADSVKGRFTISRDNAKNNVYLQMNSLKPEDTAVYYCAARKTGIPFYNYDYWGQGTQVTVSS | low polyreactivity
40 | QVQLVESGGGEVQAGGSLRLSCAASGIIFVDYVLGWYRQAPGTEMELVASIDGSGGSTNDADSVKGRFTISRDNAKNTVYLQLNRLKPEDTAVYYCTADNILYWSTLDYWGQGTHVTVSS | low polyreactivity
41 | QVQLVESGGGFGQAGGSLRLSCAASGLIFRWYAMGWYRQAPGKERELVAAISWSGASTYYADSVKGRFTISRDNAKNTVYLQMNSLKPEDTAVYYCAADSAYWTYEYWGQGTQVTVSS | high polyreactivity
42 | QVQLVESGGGFVQAGGSLRLSCAASGFIFWLNAMGWYRQAPGKERELVAASSIGGRTNYADSVKGRFTISRDNAKNTVYLQMNSLTPEDTAVYFCNNDYRSVYKGRGFDYWGQGTQVTVSS | low polyreactivity
43 | QVQLVESGGGFVQAGGSLRLSCAASGFIFYMFAMGWYRQAPGKERELVAAITSRGGSTFYADSVKGRFTISRDNAKNTVYLQMNSLKPEDTAVYYCAAVRDLYTYRLGYWGQGTQVTVSS | high polyreactivity
